Test results: publication PMC10843048

Key:
[1] = target: His+Ala+TIMP2Q186 (human); test: SPR
[2] = target: His+Ala+TIMP2 (human) (UniProt P16035); test: SPR
UniProt P16035, sequence (P16035 26-220): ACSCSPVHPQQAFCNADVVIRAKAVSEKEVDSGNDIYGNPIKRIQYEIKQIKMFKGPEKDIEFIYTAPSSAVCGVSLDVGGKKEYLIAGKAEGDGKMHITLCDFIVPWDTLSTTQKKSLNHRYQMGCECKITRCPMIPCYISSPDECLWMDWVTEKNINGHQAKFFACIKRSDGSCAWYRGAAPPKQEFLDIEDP

Substance “Recombinant C-domain of MMP2 (C-MMP2) (domain or fragment)” has a Kd [1] of 1900 nM and a Kd [2] of 0.76 nM.
